One data set deals with MCF7. Nature of the data set: percentage of EdU-negative (G0-arrested) nuclei per well, 72 h; higher = more G0 arrest. Particulars: reference: sequence is the full UniProt precursor, the tested protein was the secreted form or ectodomain.
For a further data set, the system named is hTERT-HMEC. The data set is described as above. As to conditions: reference: sequence is the full UniProt precursor, the tested protein was the secreted form or ectodomain.
Where [1] appears, read: protein concentration 0.03054 µM.
[2] abbreviates: protein concentration 0.3054 µM.
Where [3] appears, read: protein concentration 0.0328571 µM.
Setting [4] is: protein concentration 0.328571 µM.
[5] abbreviates: protein concentration 0.0257143 µM.
[6] abbreviates: protein concentration 0.257143 µM.
[7] abbreviates: protein concentration 0.0225 µM.

± gives the standard deviation of the averaged measurements.
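Note: secreted proteins added to cultured cells, EdU pulse at the end, nuclei found by Hoechst imaging, EdU status from nuclear versus surrounding ring intensity ratio, PBS as neutral control.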

Chain of Q6ZMJ2 (chain, as listed by the source): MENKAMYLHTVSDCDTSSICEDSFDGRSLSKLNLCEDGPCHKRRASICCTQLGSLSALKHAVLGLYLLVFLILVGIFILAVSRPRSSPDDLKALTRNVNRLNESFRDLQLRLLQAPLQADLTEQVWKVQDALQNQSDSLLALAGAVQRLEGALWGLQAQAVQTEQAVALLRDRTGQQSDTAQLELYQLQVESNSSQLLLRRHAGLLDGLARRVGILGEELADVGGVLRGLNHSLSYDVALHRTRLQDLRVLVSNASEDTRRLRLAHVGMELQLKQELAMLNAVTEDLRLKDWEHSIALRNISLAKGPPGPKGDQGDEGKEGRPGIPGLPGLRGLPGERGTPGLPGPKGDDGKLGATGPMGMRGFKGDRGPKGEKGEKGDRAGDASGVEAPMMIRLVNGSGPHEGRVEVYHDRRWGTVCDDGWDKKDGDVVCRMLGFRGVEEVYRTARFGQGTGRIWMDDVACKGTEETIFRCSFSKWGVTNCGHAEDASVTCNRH

As for “MPGLRRDRLLTLLLLGALLSADLYFHLWPQVQRQLRPRERPRGCPCTGRASSLARDSAAAASDPGTIVHNFSRTEPRTEPAGGSHSGSSSKLQALFAHPLYNVPEEPPLLGAEDSLLASQEALRYYRRKVARWNRRHKMYREQMNLTSLDPPLQLRLEASWVQFHLGINRHGLYSRSSPVVSKLLQDMRHFPTISADYSQDEKALLGACDCTQIVKPSGVHLKLVLRFSDFGKAMFKPMRQQRDEETPVDFFYFIDFQRHNAEIAAFHLDRILDFRRVPPTVGRIVNVTKEILEVTKNEILQSVFFVSPASNVCFFAKCPYMCKTEYAVCGNPHLLEGSLSAFLPSLNLAPRLSVPNPWIRSYTLAGKEEWEVNPLYCDTVKQIYPYNNSQRLLNVIDMAIFDFLIGNMDRHHYEMFTKFGDDGFLIHLDNARGFGRHSHDEISILSPLSQCCMIKKKTLLHLQLLAQADYRLSDVMRESLLEDQLSPVLTEPHLLALDRRLQTILRTVEGCIVAHGQQSVIVDGPVEQLAPDSGQANLTS [Q96MK3]”, the “percentage of EdU-negative” value in the data set on MCF7 (protein concentration 0.014 µM) turned out to be 24 ± 3.4%; with MCF7 (protein concentration 0.14 µM), 30.6 ± 0.74%; in the data set with hTERT-HMEC (protein concentration 0.014 µM) it was 6.29 ± 0.36%; in the data set on hTERT-HMEC (protein concentration 0.14 µM), 27.9 ± 9.3%.

Turning to “MKATIILLLLAQVSWAGPFQQRGLFDFMLEDEASGIGPEVPDDRDFEPSLGPVCPFRCQCHLRVVQCSDLGLDKVPKDLPPDTTLLDLQNNKITEIKDGDFKNLKNLHALILVNNKISKVSPGAFTPLVKLERLYLSKNQLKELPEKMPKTLQELRAHENEITKVRKVTFNGLNQMIVIELGTNPLKSSGIENGAFQGMKKLSYIRIADTNITSIPQGLPPSLTELHLDGNKISRVDAASLKGLNNLAKLGLSFNSISAVDNGSLANTPHLRELHLDNNKLTRVPGGLAEHKYIQVVYLHNNNISVVGSSDFCPPGHNTKKASYSGVSLFSNPVQYWEIQPSTFRCVYVRSAIQLGNYK”, the “percentage of EdU-negative” value came out at 24 ± 3.8% in the data set with MCF7 (setting [1]), 26.5 ± 1.1% in the data set on MCF7 (setting [2]), 5.5 ± 0.71% in the data set on hTERT-HMEC (setting [1]) and 6.07 ± 0.48% in the data set with hTERT-HMEC (setting [2]).

As for “MSMLVVFLLLWGVTWGPVTEAAIFYETQPSLWAESESLLKPLANVTLTCQAHLETPDFQLFKNGVAQEPVHLDSPAIKHQFLLTGDTQGRYRCRSGLSTGWTQLSKLLELTGPKSLPAPWLSMAPVSWITPGLKTTAVCRGVLRGVTFLLRREGDHEFLEVPEAQEDVEATFPVHQPGNYSCSYRTDGEGALSEPSATVTIEELAAPPPPVLMHHGESSQVLHPGNKVTLTCVAPLSGVDFQLRRGEKELLVPRSSTSPDRIFFHLNAVALGDGGHYTCRYRLHDNQNGWSGDSAPVELILSDETLPAPEFSPEPESGRALRLRCLAPLEGARFALVREDRGGRRVHRFQSPAGTEALFELHNISVADSANYSCVYVDLKPPFGGSAPSERLELHVDGPPPRPQLRATWSGAVLAGRDAVLRCEGPIPDVTFELLREGETKAVKTVRTPGAAANLELIFVGPQHAGNYRCRYRSWVPHTFESELSDPVELLVAES”, the “percentage of EdU-negative” value in the data set with MCF7 (setting [3]) stood at 24.5 ± 4.7%; with MCF7 (setting [4]), 27.1 ± 2.2%; with hTERT-HMEC (setting [3]), 5.27 ± 0.37%; in the data set on hTERT-HMEC (setting [4]) it was 10.2 ± 0.85%.

In the case of Q6ZMJ2, the “percentage of EdU-negative” value in the data set on MCF7 (setting [5]) was 24.7 ± 1.6%; in the data set on MCF7 (setting [6]), 24.2 ± 0.89%; in the data set on hTERT-HMEC (setting [5]), 4.96 ± 0.49%; in the data set with hTERT-HMEC (setting [6]), 8.139 ± 0.079%.

On to “MALAALMIALGSLGLHTWQAQAVPILPLGLAPDTFDDTYVGCAEEMEEKAAPLLKEEMAHHALLRESWEAAQETWEDKRRGLTLPPGFKAQNGIAIMVYTNSSNTLYWELNQAVRTGGGSRELYMRHFPFKALHFYLIRALQLLRGSGGCSRGPGEVVFRGVGSLRFEPKRLGDSVRLGQFASSSLDKAVAHRFGNATLFSLTTCFGAPIQAFSVFPKEREVLIPPHEVFLVTRFSQDGAQSLVTLWSYNQTCSHFNCAYLGGEKRRGCVSAPGALGTGDLHMTKRHLQQP [Q96L15]”, for which the “percentage of EdU-negative” value in the data set on MCF7 (protein concentration 0.016 µM) was determined as 26.5 ± 3.2%; with MCF7 (protein concentration 0.16 µM), 29 ± 1.5%; with hTERT-HMEC (protein concentration 0.016 µM), 5.18 ± 0.43%; in the data set with hTERT-HMEC (protein concentration 0.16 µM) it was 7.23 ± 0.71%.

Take “MAAHLLPICALFLTLLDMAQGFRGPLLPNRPFTTVWNANTQWCLERHGVDVDVSVFDVVANPGQTFRGPDMTIFYSSQLGTYPYYTPTGEPVFGGLPQNASLIAHLARTFQDILAAIPAPDFSGLAVIDWEAWRPRWAFNWDTKDIYRQRSRALVQAQHPDWPAPQVEAVAQDQFQGAARAWMAGTLQLGRALRPRGLWGFYGFPDCYNYDFLSPNYTGQCPSGIRAQNDQLGWLWGQSRALYPSIYMPAVLEGTGKSQMYVQHRVAEAFRVAVAAGDPNLPVLPYVQIFYDTTNHFLPLDELEHSLGESAAQGAAGVVLWVSWENTRTKESCQAIKEYMDTTLGPFILNVTSGALLCSQALCSGHGRCVRRTSHPKALLLLNPASFSIQLTPGGGPLSLRGALSLEDQAQMAVEFKCRCYPGWQAPWCERKSMW”: the “percentage of EdU-negative” value in the data set on MCF7 (setting [7]) was 26.3 ± 0.86%; in the data set on MCF7 (protein concentration 0.225 µM), 26 ± 1.1%; in the data set on hTERT-HMEC (setting [7]), 5.35 ± 0.22%; in the data set with hTERT-HMEC (protein concentration 0.225 µM) it was 5.55 ± 0.18%.

“MLTRLVLSAHLSSTTSPPWTHAAISWELDNVLMPSPRIWPQVTPTGRSASVRSEGNTSSLWNFSAGQDVHAIVTRTCESVLSSAVYTHGCGCVRSATNITCQSSGQQRQAARQEEENSICKAHDSREGRLGYPLSAHQPGSGGPN [Q8TAV5]”: the “percentage of EdU-negative” value was found to be 24.95 ± 0.064% in the data set on MCF7 (setting [7]), 26 ± 2.6% in the data set with MCF7 (protein concentration 0.225 µM), 5.652 ± 0.04% with hTERT-HMEC (setting [7]) and 12.7 ± 0.25% in the data set on hTERT-HMEC (protein concentration 0.225 µM).

These data come from the supplement of paper PMC11316812.
